Measurements as given in the nanobody polyreactivity screen of Harvey et al. (2022).

Assay: yeast display, Sf9 membrane polyspecificity reagent, FACS + sequencing; frameworks hold sequencing errors
How it was run: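 Polyreactivity labels are assigned by the sorting gate from which each nanobody was recovered. The gates were low and high (top ~1%), set on anti-HA fluorescence for expression and streptavidin fluorescence for reagent binding. Before sorting, galactose-induced (36–48 hours) yeast display cells were stained for 1 hour at 4 °C with 10% biotinylated, detergent-solubilized Sf9 membrane reagent.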

Sequence	polyreactivity (PSR sort gate)
QVHLVESGGGLVQAGGSLRLSCAASGRIFAGYGMGWYRQAPGKERELVAAISSGGSTYYADSVKGRFTISRDNAKNPVYLQINSLKPEDTAVYYCAADTYTYYDYMARYYYWGQGTQVTVSS	low polyreactivity
QVHLVESGGGLVQAGGSLRLSCAASGRIFAYYTMGWNRQAPGKERELVARITKNGGSTYYAESVKGRFTISRDNAKNTVYLQMNSLKPEDTAVYYCNADSGYTGRRTRERYYYWGQGTQVTVSS	high polyreactivity
QVHLVESGGGLVQAGGSLRLSCAASGRIFGFYAMALYRQSPGKEREFVASISVRGASTYADSVKGRFTISRDNAKNTVYLQMNSLKPEDTAVYYCNAYGRVSKRYGYWGQGTQVTVSS	high polyreactivity
QVHLVESGGGLVQAGGSLRLSCAASGRIFGVNAMGWYRQAPGKERELVAAITWSGGSTYYADSVKGRFTISRDNAKITVYLEMNSLKPEDTAVYYCAVEGQFDDGWAWYDYWGQGTQVTVSS	high polyreactivity
QVHLVESGGGLVQAGGSLRLSCAASGRIFGYYAMGWYRQAPGKERELVARISSSGGSTYYADSVKGRFTISRDNAKNTVYLQMNSLKPEDTAVYYCNTASNRYPGWRAEFDYWGQGTQVTVSS	low polyreactivity
QVHLVESGGGLVQAGGSLRLSCAASGRIFQRNVMGWYRQAPGKERELVASITGGGTTNYADSVKGRFTISRDNAKNTVYLQMNSLKPEDTAVYYCAKGYGASNDPGYVRKRYGYWGQGTQVTVSS	low polyreactivity
QVHLVESGGGLVQAGGSLRLSCAASGRIFTYYAMGWYRQAPGKERELVAAINSRGGRTYYADSVKGRFTISRDNAKNTVYLQMNSLKPEDTAVYYCNKAVYFAWGWGLRDYDYWGQGTQVTVSS	high polyreactivity
QVHLVESGGGLVQAGGSLRLSCAASGRISHYNAMGWNRQAPGKERELVAAISSRGGSTYYADSVKGRFTISRDNAKNTVYLQMNSLKPEDTAVYFCAVRYWHWGKKITYDYWGQGTQVTVSS	high polyreactivity
QVHLVESGGGLVQAGGSLRLSCAASGRISQNALGWYRQAPGKEREVVAAITFSGGSTYYADSVKGRFTISRDNATNTVYLQMNSLKPEDNAVYYCNVRLYTDGLKYDYWGQGTQVTVSS	low polyreactivity
QVHLVESGGGLVQAGGSLRLSCAASGRIYAFYAMGWYRQAPGKERELVAAISSGGNTKYADSVKGRFTISRDNAKNTVYLQMNSLKPEYTAVFYCDARTPWYNKGDYWGLGTQVTVSS	low polyreactivity
QVHLVESGGGLVQAGGSLRLSCAASGRLFGVYVMGWYRQAPGKERELVAAISWSGSHTYYADSVKGRFTISRDNAKNTVYLQMNSLKPEDTEVYYCNADSYPDYTGPGLDWYDYWGQGTQVTVSS	low polyreactivity
QVHLVESGGGLVQAGGSLRLSCAASGRNFDNKAMGWYRQAPGKERELVATLSRNGGSTYYADSVKGRFTISRDNAKNTVYLQINRLKRDDTAVYYCNKRTRFIPSFDYWGQGTQVTVSS	low polyreactivity
QVHLVESGGGLVQAGGSLRLSCAASGRPFSKYTMGWDRQAPGKERELVAVISRSGTRTYYADSVKGRFTISRDNAKNTVYLQMNSLKPEDTAVYYCAAKDERRSFGMGYWGQGTQVTVSS	high polyreactivity
QVHLVESGGGLVQAGGSLRLSCAASGRTFANYAMGWYRQAPGKERELVAAISFSTVSTYYADSVKGRFTISRDNAKNTVYLQMNSLKPEDTAVYYCAARRLGYYRKVKELDYWGQGTQVTVSS	high polyreactivity
QVHLVESGGGLVQAGGSLRLSCAASGRTFAYNTMGWYRQAPGKERELVAAISSDGSTNYADSVKGRFTISRDNAKNTVYLQMNSLKPEDTAVYYCAKGEGTGYSDTQVYEHDYWGQGTQVTVSS	low polyreactivity
QVHLVESGGGLVQAGGSLRLSCAASGRTFCYNAMGWYRPAPGKERELVAAITSSGGGTSYADSVKGRFTISRDNAMNTVYLQMNSLKPEDTAVSYCARVRRYPLRYNYWGQGTQLTVSS	high polyreactivity
QVHLVESGGGLVQAGGSLRLSCAASGRTFDHNTMGWYRQAPGKERELVAAISWSGGTTYYADSVKGRFTISRDNAKNTVYLQMNSLKPEDTAVYYCAADRSPGSYGYQYDYWGQGTQVTVSS	low polyreactivity
QVHLVESGGGLVQAGGSLRLSCAASGRTFDVYAMGWYRQAPGKERELVATITDSGGNTYYADSVKGRFTISRDNAKNTVYLQMNSLKPEDTAVYYCAADRIYPYYRWSGAHRSDVDYWGQGTQVTVSS	low polyreactivity
QVHLVESGGGLVQAGGSLRLSCAASGRTFENNAMGWYRPAPGKESELVAAITVSGGSTYYADSVKGRFTLSRDNAKNTVDLQMNSLKPEDTAVYYCAIVGFGIPGGFYYWGEGTQVTVSS	low polyreactivity
QVHLVESGGGLVQAGGSLRLSCAASGRTFGYYAMGWYRQAPGKERELVAAITRTGGSTHYADSVKGRFTISRDNAKNTVYLQMNSLKPEDTAVYYCAADKRGTVYLSSFWMDYWGQGTQVTVSS	low polyreactivity
QVHLVESGGGLVQAGGSLRLSCAASGRTFPPYAMGGYRQAPGKERELVAAISIVGSTYYADSVKGRFTISRDNAKNTVYLQMNSLKPEDTAVYYCAADVAGYYKLYDYWGQGTQVTVSS	high polyreactivity
QVHLVESGGGLVQAGGSLRLSCAASGRTFPYNAMGWYRQAPGKERELVDAISSGGSTNYADSVKGRFTISRDNAKNTVYLQMNSLKPEDTAVYYCATKYQRRPYRYSYWGQGTQVTVSS	low polyreactivity

Sequence	polyreactivity (PSR sort gate)
QVHLVESGGGLVQAGGSLRLSCAASGRTFRRYAMGWYRQAPGKERELVAAISYNGGRTYYADSVKGRFTISRDNAKNSVYLQMNILKPEDTAVYYCNAERGFSDYWGQGTQVTVSS	high polyreactivity
QVHLVESGGGLVQAGGSLRLSCAASGRTFVPYVMGWYRQAPGKERELVATINWSGGSTYYADSVKGLFTISRDNAKNTVYLQMNSLKPEDTAVYYCAARYYSDWFYYLFRYDYLGQGTQVTVSS	low polyreactivity
QVHLVESGGGLVQAGGSLRLSCAASGRTFVRYAMGWYRQAPGKERELVARITARGTSTYYADSVKGRFTISRDNAKNTVYLQMNRLKPEDTAVYYCNKVRTFRDKSRYDYWGQGTQVTVSS	low polyreactivity
QVHLVESGGGLVQAGGSLRLSCAASGRTFWYYAMGWYRPAPGKERELVAAITRTGGSTYYADSVKGRFTISRDYAKNTVYLQMNSLKPEDTAVYYCARKYSYPVVAPSDYYWGQGTQVTVSS	high polyreactivity
QVHLVESGGGLVQAGGSLRLSCAASGRTFYDNAMVWYRQAPGKERELVAAISKRGSSTYYADSVKGRFTISRYTAKNSVYLEMNSLKPEDTAVYYCAADSLLGWSVEYWGKGTQVTVSS	high polyreactivity
QVHLVESGGGLVQAGGSLRLSCAASGRTFYGYDMGWYRQAPGKERELVATISSGGSTNYADSVKGRFTISRDYAKNTVYLQMNSLKPEDTAVYYCNADSYEYPSPYRYYYLGYDYWGQGTQVTVSS	low polyreactivity
QVHLVESGGGLVQAGGSLRLSCAASGRTFYSNAMGWYRQPPGKERELVAAINSGGDTYYADSVKGRFTISRDNAKNTVYLQMNSLTPEDTAVYYCADDYYWEMDSWGQGTQVTVSS	low polyreactivity
QVHLVESGGGLVQAGGSLRLSCAASGSIFAVYAMGWYRQEPGKERELVAVITRSGGSTYYADSVKGRFTISRDNAKKTVYLQLYSLKPEDTAVYYCAARSSYLLRYDYWGQGTQVTVSS	high polyreactivity
QVHLVESGGGLVQAGGSLRLSCAASGSIFDVNAMGWYRQSPGKERELVASIDNSGTTNYADSVKGRFTISRDNAKNTVYLLMNSLKPEDTAVYYGAAEYESGDYWGQGTQVTVSS	low polyreactivity
QVHLVESGGGLVQAGGSLRLSCAASGSIFDYYDMGWYRQAPGKERELVASITWSGGRTSYADSVKGRFTISRDNAKNTVYLQMNSLKPEDNAVYYCNARGFRGEYDYWVQGTQVTVSS	high polyreactivity
QVHLVESGGGLVQAGGSLRLSCAASGSIFGTYAMGWYRQPPGKESELVAAITSSGGSTYYADSVKGRFTISRDNAKNTVYLQMNSLKPEDTAVYYCAAYLRIRVGVPVRTYYYWGQGTQVTVSS	high polyreactivity
QVHLVESGGGLVQAGGSLRLSCAASGSIFKPYAMGWYRKAPGKERELVAAISGIGGSTYYADSVKGRFTISRDNAKNTVYLQMNSLKPEDTAVYYCAADTFFKIFSEYNYCGQGTQVTVSS	high polyreactivity
QVHLVESGGGLVQAGGSLRLSCAASGSIFRYYAMGCYRQAPGKERELVAGITWSSGSTYYADYVKGRFTISRDKAKNTVYFQMNSLKPEDTAVSYCIADPANPFVTEFEYWGQGNQVTVSS	high polyreactivity
QVHLVESGGGLVQAGGSLRLSCAASGSIFSDYAMGWYRQAPGKERELVAAITWSGGSTYYADSVKGRFTISRDNAKNTVYLQMNSLKPEDTAVYYCAARFGKVRDFRYAYLLEYDYWGQGTQVTVSS	low polyreactivity
QVHLVESGGGLVQAGGSLRLSCAASGSIFSVNDMGWYRQAPGKERELVAAISSGGSTNYADSVKGRFTISRDNAKNTVSLQMNSLKPEDTAVYYCAADFYVVYWGTYSVGYDYWGQGTQVTVSS	low polyreactivity
QVHLVESGGGLVQAGGSLRLSCAASGSIFTRYTMGWYRQAPGKERELVAAITRSGGSTYYADSVKGRFTISRDNAKNTVYLQMNSLKPEDTAVYYCAARVRLATGARDYWGQGTQVTVSS	high polyreactivity
QVHLVESGGGLVQAGGSLRLSCAASGSIFVAYAMGWYRQAPGKERELVAAISSSGGTTYYADSVKGRFTISRDNAMNTVYLQMNSLKPEDTAVYYCAARDYKFYYWGQGSQVTVSS	high polyreactivity
QVHLVESGGGLVQAGGSLRLSCAASGSIFYVYAMGWYRQAPGKERELVAAITSSGTTNYADSVKGRFTISRDNAKNTVYLQMNSLKPEDTAVYYCAADPDSGQVPFDYWGQGTQVTVSS	low polyreactivity
QVHLVESGGGLVQAGGSLRLSCAASGSIFYVYAMVWYRQAPGKERELVAAITWSGGSTYYADSVKGRFTISRDNAKNTVYLQMNSLNPEDTAVYYCAADEGYDYPYYYWGQGTQVSVSS	high polyreactivity
QVHLVESGGGLVQAGGSLRLSCAASGSIFYYYAMGWYRQAPGKEREFVAAINWSGGITYYADSVKGRFTISRDNAKNTVYLQMNSLKPEDTAVFYCAAPVRGYSYGKYDYWGQGTQVTVSS	high polyreactivity
QVHLVESGGGLVQAGGSLRLSCAASGSIIGKYAMGWYRQAPGKERELVADITNSGGSTYYADSVKGRFTISRDNAKNTVYLQMNSLKPEDTAVYYCAADYLYPPYYEFYFWGQGTQVTVSS	low polyreactivity
